# According to publication PMC7045643, “Allosteric inhibition of CRISPR-Cas9 by bacteriophage-derived peptides” (Genome Biology, 2020):
# Tested on: catalytically inactive Cas9 (dCas9)
# Experiment: ChIP-qPCR of dCas9 binding at AAVS1 on-target and off-target sites in Hela cells
# Format: cell-based
# Conditions: AAVS1 on target and pre-determined off-target sites, two biological replicates, Fig. S9
# Procedure: For ChIP experiments, low-passage Hela cells were seeded on to 15-cm plates at a density of 4 × 10^6 cells per plate. The next day, a total of 40.5 μg M13 G8PPD or M13 G8PFL plasmid, 20.25 μg 3×Flag-tagged dCas9 plasmid, and 20.25 μg sgRNA plasmid were transfected into cells using Lipofectamine 3000 (Invitrogen). Two biological replicates were performed for each condition. ChIP was performed with Simple ChIP Enzymatic Chromatin IP Kit (Cell Signaling Technology) following the manufacturer’s instructions. After 48 h, the cells were washed once with PBS, and 1.25 mL of 16% formaldehyde (Life Technologies) was added to 20 mL of serum-free DMEM for crosslinking to a final formaldehyde concentration of 1%. After 10 min of crosslinking at room temperature, the cells were harvested for the ChIP assay. The chromatin was sonicated using Branson digital sonifier for 10 cycles of “on/off” pulse with a 30-s interval. Fragmented chromatin was diluted and incubated with 2 μg anti-Flag Chip grade antibody (Sigma, USA) overnight at 4 °C. qPCR with immunoprecipitation-purified DNA as the template was used to analyze the effects of G8Ps on dCas9 binding at the on-target and off-target sites.
molecule,measurement,value
"M13 G8PFL: full-length M13 phage major coat protein G8P, expressed from plasmid in human cells (protein, UniProt P03619 1-74, looked up, full-length, full-length M13 phage major coat protein G8P, expressed from plasmid in human cells) MKKSVVAKIIAGSTLVIGSSAFAADDATSQAKAAFDSLTAQATEMSGYAWALVVLVVGATVGIKLFKKFVSRAS",binding specificity of dCas9 at on-target site,did not significantly improve
